Test results reported in the DeepSol protein solubility set.

Experiment: soluble on expression in E. coli; label from the status in PepcDB or PDB records

Row | Sequence | soluble on expression in E. coli
1 | MKAAPLIGISRHRLSTDGEGVTTLVAFHGCPLRCKYCLNPQSLHSEGIWKNYDCEQLYEEVRQDELYFLATNGGITFGGGEPCLQSDFIYEFRQLCGQEWQLSVETSLNVTQENIEKLVPVVDSYIIDIKDINNTIYQKYTGKNNEKVLHNLQYLIEHGKNEQIIVRTPVIPAYNTENDVDNSIRLLKEMGIIQFDRFTYKTPNNCQP | not soluble
2 | MAEAYLEYLGKHDVLTKLHNRAFYSDELNRLERSALRPVSAIVIDLNGLKEANDKLGHDAGDALLRRVGEVLNGVVTAPNHAARIGGDEFAILLPGADKQVAAAMVDTVYELLKINNQFYSSAPLSLSLGVATTEAGETMESLVRRADMNMYEQKNAYYAALRNRSADNNDTTKGLEHHHHHH | soluble
3 | MGSDKIHHHHHHMNILVTGANGFVGQTLCPALERAGLRAVRAVRISTRYEEISVGEVDGETSWSRVFDEGIDGVVHLAAKVPLAEKEKEAADSYHRVNTLGTVRLARECAARGIRRFVFISTVKVLGEECDKPFQADDSAVPSDAYAISKWEAEQSLRQISAETGMEVVILRPPLVYGPGVGGNFLRLLQMVDRRIPLPLGAIHNRRSLIYLGNLVDIIRLCLTHPDAASKTFMVSDGEDVSTPGLIRRIGSVLGHGSFLLPVPAAWMRRVGDLLGKRSAIDRLTGSLSVDSMPVQKELGWLPPYGMQAGLALTVQWYRQHKPETKS | not soluble
4 | MCILFIALNAHPQYPLIICANRDEFHHRPTAPAQFWPPERNMLAGKDLQAGGTWFGVNTQGQLAGVTNLRVAQKNQEPMRSRGELVIQALNSGSLICPNWLVEHAQDYQPFNLVFGQGTNLYCFNSIRRETVKLTQGFHAISNGAMDDVWPKMAKGQRSLEALIQQSAQLEVESLIKLMQDDSQPQDNELPDTGVGLEWKRRLAAIYIRHPDYGTRSTSILLQNAQGEIQFTEVRYDGKGRRLGQQDFHFTLPPQLPPEPDCLVVFLEHHHHHH | not soluble
5 | MSKKFFLSLGLVALLFSNSQAIDENLIKAAQAEGRVNSLAMPDTWANWKDTWADLKNLYDIEHSDTDMSSAQEIAKFKTEKKNASGDIGDVGASFGEIAVKQGVAQPFKTSYWDQIPTWAKDKDGNWLLAYTGTIAFIVNKDVVKDIPKTWQDLLKGNYKITVGDVSVAAQAVSAVLAANYALGGDEKDLSPALAFFNTLAKQGRLVNNDVSIANLEKGEVEVGLVWDFNGLGYRDKVGKDRYEVLIPADGSVISGYTTIINKYAKHPNAAKLAREFILSDKGQINLAKGYARPIRIDHITLPDDIKAKLLPSEQYKNARAIKDQKAWEKSAKELPQLWQEKVIVDMK | not soluble
6 | MNTVLIPPGPGGYGKGLWLPVGSGKKVLSLTGREIHPVAIEIGALTQSEVVNGFADIPPDNDILCVVINCAGSLRCGLYPQKGIPTINVLPTWRAGPLAQFITEENYVSGVTMEQLVLVDTAEAPDGKPETTQEPAPRVISTPPSPRGAEKLVRMVEQTGTAVGHVIALLFAASREAVDVSLRN | not soluble
7 | MSLIPIVASSPSPLISGDGDDALTATAVALATTAVHAADDLKIALIYGKTGPLEAYAKQTETGLMMGLEYATKGTMTLDGRKIVVITKDDQSKPDLSKAALAEAYQDDGADIAIGTSSSAAALADLPVAEENKKILIVEPAVADQITGEKWNRYIFRTGRNSSQDAISNAVAIGKQGVTIATLAQDYAFGRDGVAAFKEALAKTGATLATEEYVPTTTTDFTAVGQRLFDALKDKPGKKIIWVIWAGGGDPLTKLQDMDPKRYGIELSTGGNILPALAAYKRLPGMEGATYYYYDIPKNPINEWLVTEHQKRFNAPPDFFTAGGFSAAMAVVTAVQKAKSTDTEKLIAAMEGMEFDTPKGKMVFRKEDHQALQSMYHFKVKVDPAVAWAVLEPVRELKIEEMNIPIKNKGIITITTDPNSSSVDKLAAALEHHHHHH | soluble
8 | MSLKLKTLALSLLAAGVLAGCSSHSSNMANTQMKSDKIIIAHRGASGYLPEHTLESKALAFAQHSDYLEQDLAMTKDGRLVVIHDHFLDGLTDVAKKFPYRHRKDGRYYVIDFTLKEIQSLEMTENFETKDGKQAQVYPNRFPLWKSHFRIHTFEDEIEFIQGLEKSTGKKVGIYPEIKAPWFHHQNGKDIATETLKVLKKYGYDKKTDMVYLQTFDFNELKRIKTELLPQMGMDLKLVQLIAYTDWKETQEKDPKGYWVNYNYDWMFKPGAMAEVVKYADGVGPGWYMLVNKEESKPDNIVYTPLVKELAQYNVEVHPYTVRKDALPEFFTDVNQMYDALLNKSGATGVFTDFPDTGVEFLKGIKEGHHHHHH | soluble
9 | GSSNSHRGLAPTNVDFAFNLYQRLVALNPDKNTLISPVSISMALAMVSLGSAQTQSLQSLGFNLTETSEAEIHQSFQYLNYLLKQSDTGLEMNMGNAMFLLQKLKLKDSFLADVKQYYESEALAIDFEDWTKASQQINQHVKDKTQGKIEHVFSDLDSPASFILVNYIFLRGIWELPFSPENTREEDFYVNETSTVKVPMMVQSGSIGYFRDSVFPCQLIQMDYVGNGTAFFILPDQGQMDTVIAALSRDTIDRWGKLMTPRQVNLYIPKFSMSDTYDLKDVLEDLNIKDLLTNQSDFSGNTKDVPLTLTMVHKAMLQLDEGNVLPNSTNGAPLHLRSEPLDIKFNKPFILLLFDKFTWSSLMMSQVVNPA | soluble
10 | MNVYHYETSGGKDLILEYIDGLPKNEKAEGLTILEKLEKEGLEALEVLNTRQLRGKLWEIKFYRSNRIMYVVADEDNIYLVHACKKQKGKAEKFELDTAIKRVKELEKELGKKFI | not soluble
11 | MGENYKFFNHKDCEFFPCHKTNKPEEFNCLFCYCPLYALGENCGGNFKYTDKGIKDCSSCILPHKKDNYNYIMSKFQDLVKITSKKLEHHHHHH | not soluble
12 | MGRAMGDSFTFIFNPAADKGRAADKTALIERSLAHFEVASLETTRFAGHAAEIARAAAGEGSTLIACGGDGTLNEVVNAVAGQPVKVGVLPVGSANDFLKTFNPSAKEHEVRIRGFAGATSRKVDLGKVEFGGGESRYFVNSIGIGFTGRIASTVKSVKWLRGELSYAWALVSVLLGYSAVKMHITLDTVEGKIELDEPVFAFSVSNGRVEGGKFRIAPEADPFDGLLDVCILKAVSKWRVPGYVLKYLKGSQIHDPNVIYCKARSVEVFLSVSEAMHMDGEVIEKVGGAIAITAEPLAVEMLYEP | not soluble
13 | MSASSLLEQRPKGQGNKVQNGSVHQKDGLNDDDFEPYLSPQARPNNAYTAMSDSYLPSYYSPSIGFSYSLGEAAWSTGGDTAMPYLTSYGQLSNGEPHFLPDAMFGQPGALGSTPFLGQHGFNFFPSGIDFSAWGNNSSQGQSTQSSGYSSNYAYAPSSLGGAMIDGQSAFANETLNKAPGMNTIDQGMAALKLGSTEVASSVPKVVGSAVGSGSITSNIVASSSLPPATIAPPKPASWADIASKPAKQQPKLKTKNGIAGSSLPPPPIKHNMDIGTWDNKGPVAKAPSQALVQNIGQPTQGSPQPVGQQANNSPPVAQASVGQQTQPLPPPPPQPAQLSVQQQAAQPTRWVAPRNRGSGFGHNGVDGNGVGQSQAGSGSTPSEPHPVLEKLRSINNYNPKDFDWNLKHGRVFIIKSYSEDDIHRSIKYNIWCSTEHGNKRLDAAYRSMNGKGPVYLLFSVNGSGHFCGVAEMKSAVDYNTCAGVWSQDKWKGRFDVRWIFVKDVPNSQLRHIRLENNENKPVTNSRDTQEVPLEKAKQVLKIIASYKHTTSIFDDFSHYEKRQEEEESVKKERQGRGK | soluble
14 | MKSALSLLGERQQSLLTALLHHRKGLTVEELSSLLTISRNAVNQHLTHLGSSGFIQSALQESTGGRPGRVYTLTPNGLELFQRRYSFLAKLLLSWIDKNMGEHELDVCLTELGKEMASGLEHRLTQHTSRSDKLQEAITIMSELGYDTEIYRISENQAEIVANNCVFQELAQQHQEFCKLDISFLKHLLKADIEHTECIVRNGKYCRFRITSPDESGS | not soluble
15 | MLQVCCYTSEGYKYAVGIDLVRFFDTVNHSFLLRILSRTINDGRVISLIHKYLTSGVMIGKHYEPSIEGTPQGAPLSPLLSNILLNELDKELERRGHCFVRYADDSMILCKSKRSAERVCSSITDFSFYFTKGKCRLCVHKTTKEKFKRKVKSLTRRSNSMGYAQRKEILWQTFRGWIGYFKYADMRSLLIPLDQWYRRHLRMCIWKCWKRVKTRFSNLQKCGIPKGKA | not soluble
16 | DKMDGAPSRVLHIRKLPGEVTETEVIALGLPFGKVTNILMLKGKNQAFLELATEEAAITMVNYYSAVTPHLRNQPIYIQYSNHKELKT | soluble
17 | SNAIAVGSERSADGKGMLLANPHFPWNGAMRFYQMHLTIPGRLDVMGASLPGLPVVNIGFSRHLAWTHTVDTSSHFTLYRLALDPKDPRRYLVDGRSLPLEEKSVAIEVRGADGKLSRVEHKVYQSIYGPLVVWPGKLDWNRSEAYALRDANLENTRVLQQWYSINQASDVADLRRRVEALQGIPWVNTLAADEQGNALYMNQSVVPYLKPELIPACAIPQLVAEGLPALQGQDSRCAWSRDPAAAQAGITPAAQLPVLLRRDFVQNSNDSAWLTNPASPLQGFSPLVSQEKPIGPRARYALSRLQGKQPLEAKTLEEMVTANHVFSADQVLPDLLRLCRDNQGEKSLARACAALAQWDRGANLDSGSGFVYFQRFMQRFAELDGAWKEPFDAQRPLDTPQGIALDRPQVATQVRQALADAAAEVEKSGIPDGARWGDLQVSTRGQERIAIPGGDGHFGVYNAIQSVRKGDHLEVVGGTSYIQLVTFPEEGPKARGLLAFSQSSDPRSPHYRDQTELFSRQQWQTLPFSDRQIDADPQLQRLSIRE | soluble
18 | MAHHHHHHMDQLVYYVMVQHNSIQPIIVRQPPTVVIHTQPNPPITLDLPPQNIILKNDEPQPIIVRQQNPNIIVQKSGNEFSENPNYALSLNQQMKEITSMTSPSAAIPHGGIAQVGIPHVTNEPLLGVTTPEMNELTDPAYIYSNQYITTQNKSQPMNNMYFTSVPLNNDGSYSPYNMTLYANKREDYTKSTPSKY | not soluble
19 | MDHGVVLLSDDQGLQWRQASSVPLSTPLTGVSFVDAKRGWAVGHWGAILITTDGGESWQVQRLATEEDRPLFAVHFFNARQGVAVGLWSLVLTTEDGGQTWSEQPLQAPPGAKRADLNLMGLFADSRGTLYATAEHGQVLHSEDQGKNWRYLDTGYEGTLWAGAVLADGRLLLGGQRGTLLQGSADGKGFHRVPTQSKGSVTCVAVAGSRVLAVGLDGLSVQSSDGGHSFQETQTADGLSLTAALFNAEGVPVLFSRRGVMPYQELEHHHHHH | not soluble
20 | MLLDVQHGQFGFIKGGIIAVIWFSLSRTINCGQLNLECFEFWLPTSQLLVLDVCLFDAFALEHHHHHH | not soluble
21 | SSSNSEKEWHIVPVSKDYFSIPNDLLWSFNTTNKSINVYSKCISGKAVYSFNAGKFMGNFNVKEVDGCFMDAQKIAIDKLFSMLKDGVVLKGNKINDTILIEKDGEVKLKLIRGI | soluble
22 | MNPERQETISPKNVPFQPVPTPNQQSLQSRMLESNQAVPDAFQKVAAWNHYNAVATPPIGVPQTARPPSNQSPHPNPPGYPYQSHQQQFHPLAIAFQQPFGLPQQVIYPPPPPGFTPHRVQVSPVGLLGPPGFFPQFAGSTTSQGNPSEVSVRTKSAEGTTGPIAPSITTKPTSTIQVAPPRDPVAPTTSSSGITKKPENGEFSLVKTISGHTKSVSVIKFSYCGKYLGTGSADKQIKVWNTVDMTYLQTLASHQLGINDFSWSSNSQFIASASDDTTVKIFDVISGACLRTMRGHTNYVFCCSFNPQSSLIASAGFDETVRVWDFKTGLCVKCIPAHSDPITSISYNHDGNTMATSSYDGCIRVWDAASGSCLKTLVDTDHAPVTFVCFSPNGKYLLSAQLDSSLKLWDPKKAKPLKYYNGHKNKKYCLFANMSVPLGKHIISGSEDGRILVWSIQTKQIVQILEGHTTPVLATDSHPTLNIIASGGLEPDNVIRIWRRN | not soluble
